Experimental data: publication PMC8811538, “Pilot scale production, extraction and purification of a thermostable phycocyanin from Synechocystis sp. PCC 6803” (Bioresource Technology, 2022)
Several values for one entry are separate records, joined by “and”; a condition that tells them apart may be missing. Equal values may be shown once.

How the values were obtained:
[1] = target: the molecule itself; assay: SEC; purified, freeze-dried Te-PC resuspended in 15 mM citric acid-trisodium citrate pH 6.0; 250 µL (425 µg Te-PC) on Superdex-200 10/300 GL in 100 mM trisodium citrate, pH 6.0, 8 °C, 0.5 mL/min; absorption at 280 and 615 nm; sizes from molecular weight standards (apparent); peaks about 5% hexamer, 80% trimer, 15% (ɑβ) monomer
[2] = target: T1, phycocyanin β-subunit (CpcB) of Te-PC (Thermosynechococcus elongatus BP-1, UniProt P50033 1-172, phycobilin chromophore (chromophorylated; sites not given)); assay: as above; details: both partners purified
T1 construct: phycocyanin beta-subunit CpcB of Thermosynechococcus elongatus BP-1, expressed from the cpcBACD (TeBACD) operon; source: Synechocystis sp
T1 sequence (looked up): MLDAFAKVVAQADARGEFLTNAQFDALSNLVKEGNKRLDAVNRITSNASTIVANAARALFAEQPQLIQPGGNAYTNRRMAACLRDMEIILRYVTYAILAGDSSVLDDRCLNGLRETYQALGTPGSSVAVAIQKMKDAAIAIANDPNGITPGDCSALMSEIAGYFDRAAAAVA

B1: thermostable phycocyanin from Thermosynechococcus elongatus BP-1, (ɑβ) monomer (complex)
chain 1: not shown
chain 2: MLDAFAKVVAQADARGEFLTNAQFDALSNLVKEGNKRLDAVNRITSNASTIVANAARALFAEQPQLIQPGGNAYTNRRMAACLRDMEIILRYVTYAILAGDSSVLDDRCLNGLRETYQALGTPGSSVAVAIQKMKDAAIAIANDPNGITPGDCSALMSEIAGYFDRAAAAVA
modifications: phycobilin chromophore (chromophorylated; sites not given) | phycobilin chromophore (chromophorylated; sites not given)
notes: phycocyanin alpha-subunit CpcA of Thermosynechococcus elongatus BP-1, expressed from the cpcBACD (TeBACD) operon; phycocyanin beta-subunit CpcB of Thermosynechococcus elongatus BP-1, expressed from the cpcBACD (TeBACD) operon; The construct is described in the supplementary materials and in Puzorjov et al., 2021; also called Te-PC; PC; source: Synechocystis sp
Question: B1 was tested. Which “stoichiometry N” value [1] did it give?
Answer: 6 and 3

B2: phycocyanin ⍺-subunit (CpcA) of Te-PC (natural protein)
chain: not shown
modifications: phycobilin chromophore (chromophorylated; sites not given)
notes: phycocyanin alpha-subunit CpcA of Thermosynechococcus elongatus BP-1, expressed from the cpcBACD (TeBACD) operon; source: Synechocystis sp
Question: Does B2 bind [2]?
Answer: binds
